In one series the target is T1, PrnA (Pseudomonas fluorescens, UniProt P95480).
T1 construct: made in house; host or cells: Pseudomonas fluorescens BL915deltaORF1-4 with plasmid pPEH14 (prnA)
The series can be described thus: Activation of PrnA by electron transferases, 2 h assay (Example 2). Format: biochemical. The conditions noted are these: 20 microliter PrnA, 50 microliter NADH, 50 microliter electron transferase, room temperature. As to the method: The following components are used in examples 1-4 below: PrnA (described for Example 1 above) at 0.36 mg/ml, Assay Mixture containing HEPES (100 mM), glucose-6-phosphate, disodium salt (50 mM), D-Trp (5 mM), NaCl (5 mM). Aspergillus niger catalase (39 U/ml), bovine erythrocyte superoxide dismutase (15 U/ml), Leuconostoc mesenteroides glucose-6-phosphate dehydrogenase (10 U/ml). NADH-(3 mg/ml) NADPH (3 mg/ml).
Each assay contains the assay mixture, either NADH (for samples containing Fre and the NAD(P)H:FMN reductase) or NADPH (for samples containing FNR or FNR and Fd), PrnA and the indicated electron transferase. Negative control samples are incubated in parallel; these substituted buffer for PrnA. Quantification standards are prepared by diluting 0,1, 2 or 5 microliter of 7-Cl-Trp standard (1 mM) in 100 microliter Assay Mixture, 50 microliter NADH, 20 microliter PrnA and 50 microliter buffer; the tubes were heated to 100 C. prior to addition of PrnA, then heated an additional 2 min. Further processing is in parallel with the enzymatic reactions. All samples are mixed for 2 h at room temperature. Reactions are stopped and samples processed as described above in Example 1, including using the HPLC Analytical method PrnA1 as described in Example 1.

The target in the next series is T2, PrnC (Pseudomonas fluorescens, UniProt P95482).
T2 construct: made in house; host or cells: P. fluorescens (pPEH/prnC/134Δprn), plasmid pPEH-PrnC with tac promoter
T2 sequence (P95482 whole entry, looked up): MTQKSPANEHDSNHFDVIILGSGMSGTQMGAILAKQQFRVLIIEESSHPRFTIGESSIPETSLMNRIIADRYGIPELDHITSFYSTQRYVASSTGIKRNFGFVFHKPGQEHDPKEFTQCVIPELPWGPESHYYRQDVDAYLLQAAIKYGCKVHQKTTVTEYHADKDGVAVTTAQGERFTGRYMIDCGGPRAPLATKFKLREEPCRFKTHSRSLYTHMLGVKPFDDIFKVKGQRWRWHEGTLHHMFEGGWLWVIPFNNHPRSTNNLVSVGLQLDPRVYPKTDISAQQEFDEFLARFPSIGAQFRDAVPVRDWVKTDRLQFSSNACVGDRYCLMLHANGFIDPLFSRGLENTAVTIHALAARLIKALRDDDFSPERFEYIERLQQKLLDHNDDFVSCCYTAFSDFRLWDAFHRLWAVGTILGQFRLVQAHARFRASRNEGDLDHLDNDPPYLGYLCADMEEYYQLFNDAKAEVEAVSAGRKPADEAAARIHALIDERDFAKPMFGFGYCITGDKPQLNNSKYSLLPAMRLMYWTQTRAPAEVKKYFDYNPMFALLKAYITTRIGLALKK
The series is described as follows: In vitro halogenation with PrnC: chlorination of MDA to APRN (Example 3). Format: biochemical, P. fluorescens. As to conditions: Extract #2 (PrnC depleted of P2) plus 20 microliter electron transferase, NADH, overnight. As to the method: Fre, ferrodoxin NADP reductase, ferrodoxin and NADPH FMN-reductase are tested for the ability to activate P. fluorescens PrnC that was depleted of endogenous electron transferase (P2) as described below. PrnC catalyzes chlorination of monodechloroaminopyrrolnitrin (MDA) to yield aminopyrrolnitrin (APRN).
The following materials are prepared for use in assays described below. Buffer 100 mM Tris/Cl, 1 mM EDTA. pH 7.5. Monodechloroaminopyrrolnitrin (MDA) 74.2 mM is prepared by culture of Pseudomonas fluorescens expressing PrnA and PrnB as described in (Kirner et al,1998) which is herein incorporated by reference in its entirety. The assay mix comprises FAD (5 μM) and MDA (742 μM) in buffer. […]
The assays described below are run as follows; Extract #2 is mixed with the indicated electron transferase, assay mix and either NADH or NADPH as indicated. The native activity of PrnC prior to removal of the P2 activity is determined by a parallel sample in which extract #1 is mixed with assay mix and NADH. […] Samples are analyzed by PrnC_Iso method described below. The 220 nm absorbance chromatogram is analyzed and integrated. PrnC activity is expressed as 100 times the ratio of the APRN peak area to the sum of the peak areas of APRN and MDA. Assuming equal extinction coefficients at 220 nm the calculated ratio is equivalent to the net % conversion of MDA to APRN by halogenation. […]

T1 sequence (P95480 whole entry): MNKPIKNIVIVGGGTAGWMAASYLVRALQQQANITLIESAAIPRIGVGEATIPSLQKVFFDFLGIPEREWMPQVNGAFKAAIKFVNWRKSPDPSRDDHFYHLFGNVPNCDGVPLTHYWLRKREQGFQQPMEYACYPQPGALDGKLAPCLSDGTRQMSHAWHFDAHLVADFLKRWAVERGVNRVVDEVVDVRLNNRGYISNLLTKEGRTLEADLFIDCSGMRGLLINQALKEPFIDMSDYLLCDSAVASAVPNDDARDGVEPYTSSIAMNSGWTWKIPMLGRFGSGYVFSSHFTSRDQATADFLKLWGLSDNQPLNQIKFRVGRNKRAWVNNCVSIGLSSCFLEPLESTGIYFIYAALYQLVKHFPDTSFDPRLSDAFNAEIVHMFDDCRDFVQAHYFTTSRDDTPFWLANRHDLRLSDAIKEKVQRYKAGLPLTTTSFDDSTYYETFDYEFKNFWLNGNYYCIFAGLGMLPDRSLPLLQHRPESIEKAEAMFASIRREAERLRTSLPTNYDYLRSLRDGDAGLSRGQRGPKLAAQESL

“ferrodoxin NADP reductase and ferrodoxin: Spinach ferredoxin NADP reductase used together with spinach ferredoxin (Fd)”: the “Net 7-Cl-Trp produced” value in the series with PrnA was 9.15 nmol. Also, the “PrnC activity, conversion of MDA to APRN” value with PrnC turned out to be 2.5%.

For the origin of these results see US20030135880A1, “Compositions and methods for halogenation reactions” (priority 2002, published 2003).
